Test results reported in patent publication US20040235726A1, “Glucagon-like peptides (glp-1) and treatment of respiratory distress” (priority 2001, published 2004).
Where no end group is shown, it is not given here.

B1: Gln^22-GLP-1 (7-37) OH (peptide)
peptide: HAEGTFTSDVSSYLEQQAAKEFIAWLVKGRG-OH
B2: Val^8-Ala^33-GLP-1 (7-37) OH (peptide)
peptide: HVEGTFTSDVSSYLEGQAAKEFIAWLAKGRG-OH
B3: Val^8-Tyr^12-Glu^22-GLP-1 (7-37) OH (peptide)
peptide: HVEGTYTSDVSSYLEEQAAKEFIAWLVKGRG-OH
B4: Val^8-Tyr^16-Trp^19-Glu^22-GLP-1 (7-37) OH (peptide)
peptide: HVEGTFTSDYSSWLEEQAAKEFIAWLVKGRG-OH
B5: Val^8-His^22-GLP-1 (7-37) OH (peptide)
peptide: HVEGTFTSDVSSYLEHQAAKEFIAWLVKGRG-OH
B6: Val^8-His^27-GLP-1 (7-37) OH (peptide)
peptide: HVEGTFTSDVSSYLEGQAAKHFIAWLVKGRG-OH
B7: Val^8-Glu^35-GLP-1 (7-37) OH (peptide)
peptide: HVEGTFTSDVSSYLEGQAAKEFIAWLVKERG-OH
B8: Val^8-Ile^18-Glu^22-GLP-1 (7-37) OH (peptide)
peptide: HVEGTFTSDVSIYLEEQAAKEFIAWLVKGRG-OH
B9: Val^8-Glu^16-GLP-1 (7-37) OH (peptide)
peptide: HVEGTFTSDESSYLEGQAAKEFIAWLVKGRG-OH
B10: Gly^8-GLP-1 (7-37) OH (peptide)
peptide: HGEGTFTSDVSSYLEGQAAKEFIAWLVKGRG-OH
B11: Val^8-Trp^16-Glu^22-Val^25-Ile^33-GLP-1 (7-37) OH (peptide)
peptide: HVEGTFTSDWSSYLEEQAVKEFIAWLIKGRG-OH
B12: Val^8-Glu^22-Ile^25-GLP-1 (7-37) OH (peptide)
peptide: HVEGTFTSDVSSYLEEQAIKEFIAWLVKGRG-OH
B13: Val^8-Lys^22-GLP-1 (7-36) NH2 (peptide)
peptide: HVEGTFTSDVSSYLEKQAAKEFIAWLVKGR-NH2
B14: Val^8-Lys^23-GLP-1 (7-37) OH (peptide)
peptide: HVEGTFTSDVSSYLEGKAAKEFIAWLVKGRG-OH
B15: Val^8-Tyr^12-GLP-1 (7-36) NH2 (peptide)
peptide: HVEGTYTSDVSSYLEGQAAKEFIAWLVKGR-NH2
B16: Val^8-Leu^25-GLP-1 (7-37) OH (peptide)
peptide: HVEGTFTSDVSSYLEGQALKEFIAWLVKGRG-OH
B17: Val^8-Lys^18-Glu^22-GLP-1 (7-37) OH (peptide)
peptide: HVEGTFTSDVSKYLEEQAAKEFIAWLVKGRG-OH
B18: Gly^8-Glu^30-GLP-1 (7-37) OH (peptide)
peptide: HGEGTFTSDVSSYLEGQAAKEFIEWLVKGRG-OH
B19: Val^8-Lys^22-GLP-1 (7-37) OH (peptide)
peptide: HVEGTFTSDVSSYLEKQAAKEFIAWLVKGRG-OH
B20: Val^8-Glu^22-His^37-GLP-1 (7-37) OH (peptide)
peptide: HVEGTFTSDVSSYLEEQAAKEFIAWLVKGRH-OH
B21: Val^8-Asp^9-Ile^11-Tyr^16-Glu^22-GLP-1 (7-37) OH (peptide)
peptide: HVDGIFTSDYSSYLEEQAAKEFIAWLVKGRG-OH
B22: Val^8-His^26-GLP-1 (7-37) OH (peptide)
peptide: HVEGTFTSDVSSYLEGQAAHEFIAWLVKGRG-OH
B23: Val^8-Trp^16-Glu^22-Ile^33-GLP-1 (7-37) OH (peptide)
peptide: HVEGTFTSDWSSYLEEQAAKEFIAWLIKGRG-OH
B24: Val^8-Trp^19-Glu^22-GLP-1 (7-37) OH (peptide)
peptide: HVEGTFTSDVSSWLEEQAAKEFIAWLVKGRG-OH
B25: Val^8-Glu^26-GLP-1 (7-37) OH (peptide)
peptide: HVEGTFTSDVSSYLEGQAAEEFIAWLVKGRG-OH
B26: Val^8-Leu^16-Glu^22-GLP-1 (7-37) OH (peptide)
peptide: HVEGTFTSDLSSYLEEQAAKEFIAWLVKGRG-OH
B27: Val^8-Tyr^12-Tyr^16-GLP-1 (7-37) OH (peptide)
peptide: HVEGTYTSDYSSYLEGQAAKEFIAWLVKGRG-OH
B28: Val^8-Pro^35-GLP-1 (7-37) OH (peptide)
peptide: HVEGTFTSDVSSYLEGQAAKEFIAWLVKPRG-OH
B29: Val^8-Tyr^16-Phe^19-GLP-1 (7-37) OH (peptide)
peptide: HVEGTFTSDYSSFLEGQAAKEFIAWLVKGRG-OH
B30: Val^8-Trp^12-GLP-1 (7-37) OH (peptide)
peptide: HVEGTWTSDVSSYLEGQAAKEFIAWLVKGRG-OH
B31: Val^8-Ile^16-Glu^22-GLP-1 (7-37) OH (peptide)
peptide: HVEGTFTSDISSYLEEQAAKEFIAWLVKGRG-OH
B32: Val^8-Ala^16-GLP-1 (7-37) OH (peptide)
peptide: HVEGTFTSDASSYLEGQAAKEFIAWLVKGRG-OH
B33: Val^8-Leu^16-GLP-1 (7-37) OH (peptide)
peptide: HVEGTFTSDLSSYLEGQAAKEFIAWLVKGRG-OH
B34: Val^8-Glu^22-Ile^27-GLP-1 (7-37) OH (peptide)
peptide: HVEGTFTSDVSSYLEEQAAKIFIAWLVKGRG-OH
B35: Val^8-Glu^22-Leu^25-GLP-1 (7-37) OH (peptide)
peptide: HVEGTFTSDVSSYLEEQALKEFIAWLVKGRG-OH
B36: Val^8-Glu^34-GLP-1 (7-37) OH (peptide)
peptide: HVEGTFTSDVSSYLEGQAAKEFIAWLVEGRG-OH
B37: Val^8-Glu^22-GLP-1 (7-37) OH (peptide)
peptide: HVEGTFTSDVSSYLEEQAAKEFIAWLVKGRG-OH
B38: Val^8-Glu^36-GLP-1 (7-37) OH (peptide)
peptide: HVEGTFTSDVSSYLEGQAAKEFIAWLVKGEG-OH
B39: Val^8-Trp^12-Glu^22-GLP-1 (7-37) OH (peptide)
peptide: HVEGTWTSDVSSYLEEQAAKEFIAWLVKGRG-OH
B40: Val^8-Phe^16-Glu^22-GLP-1 (7-37) OH (peptide)
peptide: HVEGTFTSDFSSYLEEQAAKEFIAWLVKGRG-OH
B41: Val^8-Asp^30-GLP-1 (7-37) OH (peptide)
peptide: HVEGTFTSDVSSYLEGQAAKEFIDWLVKGRG-OH
B42: Val^8-His^36-GLP-1 (7-37) OH (peptide)
peptide: HVEGTFTSDVSSYLEGQAAKEFIAWLVKGHG-OH
B43: Val^8-Phe^18-Glu^22-GLP-1 (7-37) OH (peptide)
peptide: HVEGTFTSDVSFYLEEQAAKEFIAWLVKGRG-OH
B44: Val^8-Ser^22-GLP-1 (7-37) OH (peptide)
peptide: HVEGTFTSDVSSYLESQAAKEFIAWLVKGRG-OH
B45: Val^8-Phe^20-Glu^22-GLP-1 (7-37) OH (peptide)
peptide: HVEGTFTSDVSSYFEEQAAKEFIAWLVKGRG-OH
B46: Val^8-Ser^30-GLP-1 (7-37) OH (peptide)
peptide: HVEGTFTSDVSSYLEGQAAKEFISWLVKGRG-OH
B47: Gly^8-His^11-GLP-1 (7-37) OH (peptide)
peptide: HGEGHFTSDVSSYLEGQAAKEFIAWLVKGRG-OH
B48: Val^8-His^35-GLP-1 (7-37) OH (peptide)
peptide: HVEGTFTSDVSSYLEGQAAKEFIAWLVKHRG-OH
B49: Val^8-Asp^22-GLP-1 (7-37) OH (peptide)
peptide: HVEGTFTSDVSSYLEDQAAKEFIAWLVKGRG-OH
B50: Val^8-Trp^16-Glu^22-Val^25-GLP-1 (7-37) OH (peptide)
peptide: HVEGTFTSDWSSYLEEQAVKEFIAWLVKGRG-OH
B51: Val^8-Phe^19-Glu^22-GLP-1 (7-37) OH (peptide)
peptide: HVEGTFTSDVSSFLEEQAAKEFIAWLVKGRG-OH
B52: Val^8-His^30-GLP-1 (7-37) OH (peptide)
peptide: HVEGTFTSDVSSYLEGQAAKEFIHWLVKGRG-OH
B53: Val^8-Lys^20-GLP-1 (7-37) OH (peptide)
peptide: HVEGTFTSDVSSYKEGQAAKEFIAWLVKGRG-OH
B54: Val^8-Ala^22-GLP-1 (7-37) OH (peptide)
peptide: HVEGTFTSDVSSYLEAQAAKEFIAWLVKGRG-OH

Target: human GLP-1 receptor (human, UniProt P43220 24-463)
Assay: cell-based or functional assay

Binder	GLP-1 receptor activation relative to Val^8-GLP-1 (7-37) OH
B1	0.9 relative to Val^8-GLP-1 (7-37) OH
B2	0.2 relative to Val^8-GLP-1 (7-37) OH
B3	2.7 relative to Val^8-GLP-1 (7-37) OH
B4	3.5 relative to Val^8-GLP-1 (7-37) OH
B5	0.3 relative to Val^8-GLP-1 (7-37) OH
B6	0.8 relative to Val^8-GLP-1 (7-37) OH
B7	0.3 relative to Val^8-GLP-1 (7-37) OH
B8	4 relative to Val^8-GLP-1 (7-37) OH
B9	0.1 relative to Val^8-GLP-1 (7-37) OH
B10	1.7 relative to Val^8-GLP-1 (7-37) OH
B11	5 relative to Val^8-GLP-1 (7-37) OH
B12	3.1 relative to Val^8-GLP-1 (7-37) OH
B13	1.2 relative to Val^8-GLP-1 (7-37) OH
B14	0.4 relative to Val^8-GLP-1 (7-37) OH
B15	1.1 relative to Val^8-GLP-1 (7-37) OH
B16	0.5 relative to Val^8-GLP-1 (7-37) OH
B17	2.5 relative to Val^8-GLP-1 (7-37) OH
B18	0.6 relative to Val^8-GLP-1 (7-37) OH
B19	1.3 relative to Val^8-GLP-1 (7-37) OH
B20	4.7 relative to Val^8-GLP-1 (7-37) OH
B21	4.3 relative to Val^8-GLP-1 (7-37) OH
B22	3.5 relative to Val^8-GLP-1 (7-37) OH
B23	4.1 relative to Val^8-GLP-1 (7-37) OH
B24	3.2 relative to Val^8-GLP-1 (7-37) OH
B25	3.3 relative to Val^8-GLP-1 (7-37) OH
B26	4.3 relative to Val^8-GLP-1 (7-37) OH
B27	1.5 relative to Val^8-GLP-1 (7-37) OH

Binder	GLP-1 receptor activation relative to Val^8-GLP-1 (7-37) OH
B28	0.2 relative to Val^8-GLP-1 (7-37) OH
B29	2.8 relative to Val^8-GLP-1 (7-37) OH
B30	1.1 relative to Val^8-GLP-1 (7-37) OH
B31	3.3 relative to Val^8-GLP-1 (7-37) OH
B32	0.25 relative to Val^8-GLP-1 (7-37) OH
B33	1.1 relative to Val^8-GLP-1 (7-37) OH
B34	2 relative to Val^8-GLP-1 (7-37) OH
B35	2.8 relative to Val^8-GLP-1 (7-37) OH
B36	0.4 relative to Val^8-GLP-1 (7-37) OH
B37	2.9 relative to Val^8-GLP-1 (7-37) OH
B38	0.2 relative to Val^8-GLP-1 (7-37) OH
B39	1.7 relative to Val^8-GLP-1 (7-37) OH
B40	2.3 relative to Val^8-GLP-1 (7-37) OH
B41	0.3 relative to Val^8-GLP-1 (7-37) OH
B42	0.5 relative to Val^8-GLP-1 (7-37) OH
B43	2 relative to Val^8-GLP-1 (7-37) OH
B44	1.1 relative to Val^8-GLP-1 (7-37) OH
B45	2.7 relative to Val^8-GLP-1 (7-37) OH
B46	0.4 relative to Val^8-GLP-1 (7-37) OH
B47	0.6 relative to Val^8-GLP-1 (7-37) OH
B48	0.9 relative to Val^8-GLP-1 (7-37) OH
B49	0.9 relative to Val^8-GLP-1 (7-37) OH
B50	4.4 relative to Val^8-GLP-1 (7-37) OH
B51	1.5 relative to Val^8-GLP-1 (7-37) OH
B52	0.4 relative to Val^8-GLP-1 (7-37) OH
B53	0.7 relative to Val^8-GLP-1 (7-37) OH
B54	1.2 relative to Val^8-GLP-1 (7-37) OH
